Test results as given in doi:10.1101/2025.06.05.658000 (2025).

Legend:
Assay in all cases: ELISA
[1] = target: HLA-DR (DRA1*01:01 / DRB1*03:01), soluble knob-into-hole Fc heterodimer (human)
[2] = target: HLA-DR (DRA1*01:01 / DRB1*04:06), soluble knob-into-hole Fc heterodimer (human)
[3] = target: HLA-DR (DRA1*01:01 / DRB1*01:02), soluble knob-into-hole Fc heterodimer (human)
[4] = target: HLA-DR (DRA1*01:01 / DRB1*11:04), soluble knob-into-hole Fc heterodimer (human)
[5] = target: HLA-DR (DRA1*01:01 / DRB1*13:02), soluble knob-into-hole Fc heterodimer (human)
[6] = target: HLA-DR (DRA1*01:01 / DRB1*14:01), soluble knob-into-hole Fc heterodimer (human)
[7] = target: HLA-DR (DRA1*01:01 / DRB1*14:54), soluble knob-into-hole Fc heterodimer (human)
[8] = target: HLA-DR (DRA1*01:01 / DRB1*16:02), soluble knob-into-hole Fc heterodimer (human)
[9] = target: HLA-DR (DRA1*01:01 / DRB1*11:01), soluble knob-into-hole Fc heterodimer (human)
[10] = target: HLA-DR (DRA1*01:01 / DRB1*09:01), soluble knob-into-hole Fc heterodimer (human)
[11] = target: HLA-DR (DRA1*01:01 / DRB1*15:03), soluble knob-into-hole Fc heterodimer (human)
[12] = target: HLA-DR (DRA1*01:01 / DRB1*12:02), soluble knob-into-hole Fc heterodimer (human)
[13] = target: HLA-DR (DRA1*01:01 / DRB1*04:07), soluble knob-into-hole Fc heterodimer (human)
[14] = target: HLA-DR (DRA1*01:01 / DRB1*13:01), soluble knob-into-hole Fc heterodimer (human)
[15] = target: HLA-DR (DRA1*01:01 / DRB1*12:01), soluble knob-into-hole Fc heterodimer (human)
[16] = target: HLA-DR (DRA1*01:01 / DRB1*04:03), soluble knob-into-hole Fc heterodimer (human)
[17] = target: HLA-DR (DRA1*01:01 / DRB1*04:04), soluble knob-into-hole Fc heterodimer (human)
[18] = target: HLA-DR (DRA1*01:01 / DRB1*15:01), soluble knob-into-hole Fc heterodimer (human)
[19] = target: HLA-DR (DRA1*01:01 / DRB1*01:01), soluble knob-into-hole Fc heterodimer (human)
[20] = target: HLA-DR (DRA1*01:01 / DRB1*04:01), soluble knob-into-hole Fc heterodimer (human)
[21] = target: HLA-DR (DRA1*01:01 / DRB1*04:05), soluble knob-into-hole Fc heterodimer (human)
[22] = target: HLA-DR (DRA1*01:01 / DRB1*15:02), soluble knob-into-hole Fc heterodimer (human)
[23] = target: HLA-DR (DRA1*01:01 / DRB1*10:01), soluble knob-into-hole Fc heterodimer (human)
[24] = target: HLA-DR (DRA1*01:01 / DRB1*07:01), soluble knob-into-hole Fc heterodimer (human)

- Ki [1]: 23.9 nM
- Ki [2]: 8.27 nM
- Ki [3]: 5.52 nM
- Ki [4]: 2.92 nM
- Ki [5]: 4470 nM
- Ki [6]: 67 nM
- Ki [7]: 9.1 nM
- Ki [8]: 47 nM
- Ki [9]: 25.8 nM
- Ki [10]: 11 nM
- Ki [11]: 11.1 nM
- Ki [12]: 3.68 nM
- Ki [13]: 5.25 nM
- Ki [14]: 350 nM
- Ki [15]: 37.8 nM
- Ki [16]: 5.96 nM
- Ki [17]: 7.75 nM
- Ki [18]: 6.31 nM
- Ki [19]: 6.04 nM
- Ki [20]: 6.46 nM
- Ki [21]: 41.9 nM
- Ki [22]: 23.1 nM
- Ki [23]: 13.3 nM
- Ki [24]: 6.87 nM
B1: human CLIP peptide, unlabelled competitor (peptide)
chain: KPVSKMRMATPLLMQALPM
